Assays:
Assay in all cases: cell-based or functional assay
glucagon receptor = glucagon receptor (UniProt P47871)
GLP-1 receptor = GLP-1 receptor (UniProt P43220)
GIP receptor = GIP receptor (UniProt P48546)
GIP receptor, sequence (P48546 22-466): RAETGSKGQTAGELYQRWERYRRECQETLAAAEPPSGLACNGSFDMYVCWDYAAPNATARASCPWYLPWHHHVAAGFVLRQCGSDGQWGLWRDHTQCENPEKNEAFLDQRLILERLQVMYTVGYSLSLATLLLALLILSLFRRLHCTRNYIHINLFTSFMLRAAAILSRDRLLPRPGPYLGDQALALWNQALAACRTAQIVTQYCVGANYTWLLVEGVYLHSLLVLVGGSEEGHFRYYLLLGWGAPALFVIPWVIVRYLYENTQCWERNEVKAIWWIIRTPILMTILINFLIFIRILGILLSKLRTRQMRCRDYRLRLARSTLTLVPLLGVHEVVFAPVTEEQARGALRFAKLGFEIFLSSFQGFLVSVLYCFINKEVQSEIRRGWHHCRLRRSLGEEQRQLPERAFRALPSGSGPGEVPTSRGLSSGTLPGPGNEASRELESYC

glucagon receptor, sequence (P47871 26-477 limits assumed): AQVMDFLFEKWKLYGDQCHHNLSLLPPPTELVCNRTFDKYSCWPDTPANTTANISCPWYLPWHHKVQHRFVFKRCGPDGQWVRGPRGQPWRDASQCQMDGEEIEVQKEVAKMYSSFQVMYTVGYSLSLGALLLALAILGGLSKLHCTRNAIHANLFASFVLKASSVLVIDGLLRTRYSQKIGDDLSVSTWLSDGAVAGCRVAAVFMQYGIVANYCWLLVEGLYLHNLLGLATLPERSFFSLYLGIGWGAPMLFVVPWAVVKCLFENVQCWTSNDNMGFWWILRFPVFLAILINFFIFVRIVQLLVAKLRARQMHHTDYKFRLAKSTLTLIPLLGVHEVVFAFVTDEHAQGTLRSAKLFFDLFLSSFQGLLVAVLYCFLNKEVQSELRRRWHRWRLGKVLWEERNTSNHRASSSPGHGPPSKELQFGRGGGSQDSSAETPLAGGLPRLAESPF
GLP-1 receptor, sequence (P43220 24-463 limits assumed): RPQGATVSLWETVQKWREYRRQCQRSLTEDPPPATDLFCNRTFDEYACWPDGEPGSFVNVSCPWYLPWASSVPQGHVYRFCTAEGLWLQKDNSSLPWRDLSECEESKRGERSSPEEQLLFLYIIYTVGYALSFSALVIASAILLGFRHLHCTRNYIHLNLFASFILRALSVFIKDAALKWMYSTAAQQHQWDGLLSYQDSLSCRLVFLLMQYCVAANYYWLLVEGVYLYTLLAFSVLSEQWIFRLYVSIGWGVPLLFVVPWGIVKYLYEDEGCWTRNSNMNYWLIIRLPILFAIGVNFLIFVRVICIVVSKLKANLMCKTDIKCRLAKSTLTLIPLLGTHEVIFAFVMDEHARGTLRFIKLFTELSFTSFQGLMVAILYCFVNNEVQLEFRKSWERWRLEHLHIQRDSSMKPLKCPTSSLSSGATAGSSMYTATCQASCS

% activity at the glucagon receptor (glucagon receptor) [%]	EC50 (GLP-1 receptor) [nM]	EC50 (glucagon receptor) [µM]	EC50 (GIP receptor) [nM]	Substance
0.04				Liraglutide (peptide)
	26.9	> 4	0.242	mt-103 (peptide)
